This is an account of results in publication PMC6997759 (2019).

Experiment [1] deals with AE.A244gp120Δ11 (N-terminal 11 aa deleted) (HIV-1 (clade AE, A244)). Kind of experiment: SPR; apparent affinity. Background: Surface plasmon resonance follows binding to a sensor surface in real time, without labels.
Another experiment concerns the target B.MNgp120Δ11. Briefly: SPR; apparent affinity.

B1: DH677.3 MAb (antibody, V domains shown)
VH: QVQLVQSGAEVQKPGASVKVSCKASGYTFASYDINWVRQATGQGLEWMGWMNPKTGNTGYAQKFQGRVTLTRNTSISTAYMELTSLRSEDTAVYYCATYRIIAAVGYRYFQYWGQGTLVTVSS
VL: DIQLTQSPSSLSASVGDSVTITCRASQGFGNYLAWYQQRPGKVPEVLIYAATTLQSGVPSRFSGSGSGTDFTLTISSLQPEDVATYYCQKYNSAPFTFGQGTRLEIK
Turning to B1, the Kd in experiment [1] was 0.6 nM; with B.MNgp120Δ11, 7.02 nM.
